In PMC7943601:

Target: PrgJ (S. enterica sv. Typhimurium (endogenous in SB905)) (UniProt P41785)
Experiment: cryo-EM structure

Sequence of PrgJ (P41785 whole entry): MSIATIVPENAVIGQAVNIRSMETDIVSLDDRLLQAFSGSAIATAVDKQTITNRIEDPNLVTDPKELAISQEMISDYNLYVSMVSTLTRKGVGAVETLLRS

PrgJ (from UniProt P41785 1-101) (natural protein)
stoichiometry N: 6
